Data on five substances can be found in publication PMC10578477, “Biochemical and genetic dissection of the RNA-binding surface of the FinO domain of Escherichia coli ProQ”.

Common to all, as to assay: EMSA
Common to all, as to settings: EMSA: 25 mM Tris pH 7.5, 150 mM NaCl, 5% glycerol, 1 mM MgCl2, 1 nM 32P-RNA, 30 min RT; microplates pretreated with 0.0025% BSA; 6% gel in 0.5x TBE at 4 C

The target in data set [1] is T1, ProQ NTD T65A T65A (Escherichia coli) (UniProt P45577).
T1 sequence: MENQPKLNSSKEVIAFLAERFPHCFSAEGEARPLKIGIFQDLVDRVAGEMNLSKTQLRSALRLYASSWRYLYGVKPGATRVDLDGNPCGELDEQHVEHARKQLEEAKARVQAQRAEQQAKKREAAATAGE

The target in data set [2] is T2, ProQ NTD R58A R58A (Escherichia coli) (UniProt P45577).
T2 sequence: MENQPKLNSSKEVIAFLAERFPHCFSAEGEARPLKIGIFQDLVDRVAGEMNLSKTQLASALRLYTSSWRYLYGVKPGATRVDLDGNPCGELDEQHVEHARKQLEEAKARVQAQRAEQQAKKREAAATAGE

In data set [3] the target is T3, ProQ NTD D41A D41A (Escherichia coli) (UniProt P45577).
T3 sequence: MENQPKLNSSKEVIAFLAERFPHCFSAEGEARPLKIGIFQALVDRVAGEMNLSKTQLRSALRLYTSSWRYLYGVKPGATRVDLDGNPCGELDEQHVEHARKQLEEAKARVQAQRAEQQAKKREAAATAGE

For data set [4], the target named is T4, ProQ NTD R62A R62A (Escherichia coli) (UniProt P45577).
T4 sequence: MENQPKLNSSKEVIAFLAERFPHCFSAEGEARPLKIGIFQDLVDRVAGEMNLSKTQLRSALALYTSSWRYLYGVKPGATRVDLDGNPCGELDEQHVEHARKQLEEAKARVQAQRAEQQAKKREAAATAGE

For data set [5], the target named is T5, ProQ NTD R32A R32A (Escherichia coli) (UniProt P45577).
T5 sequence: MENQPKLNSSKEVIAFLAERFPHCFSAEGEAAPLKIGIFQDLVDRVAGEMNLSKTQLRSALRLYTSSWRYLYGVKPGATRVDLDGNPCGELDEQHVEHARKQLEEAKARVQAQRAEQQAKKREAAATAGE

Data set [6] deals with T6, ProQ NTD K35A K35A (Escherichia coli) (UniProt P45577).
T6 sequence: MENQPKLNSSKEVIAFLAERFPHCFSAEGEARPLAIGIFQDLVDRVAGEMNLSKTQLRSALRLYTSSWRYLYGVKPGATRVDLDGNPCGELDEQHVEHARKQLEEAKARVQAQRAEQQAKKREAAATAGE

Data set [7] addresses T7, ProQ NTD K54A K54A (Escherichia coli) (UniProt P45577).
T7 sequence: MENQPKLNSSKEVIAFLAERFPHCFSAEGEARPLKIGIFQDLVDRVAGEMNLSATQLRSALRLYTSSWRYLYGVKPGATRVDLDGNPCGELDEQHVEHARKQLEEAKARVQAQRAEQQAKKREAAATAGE

Data set [8] deals with T8, ProQ NTD R69A R69A (Escherichia coli) (UniProt P45577).
T8 sequence: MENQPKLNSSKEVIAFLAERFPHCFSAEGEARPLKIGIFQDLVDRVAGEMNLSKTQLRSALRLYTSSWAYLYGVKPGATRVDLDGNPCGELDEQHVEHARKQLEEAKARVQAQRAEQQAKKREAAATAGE

For orientation: Kd means the equilibrium constant for the complex coming apart. In the case of SibA, the results for the binding signal (fold weaker Kd than WT) in data set [1] and in data set [3] were 2 and above 5, respectively. The Kd in data set [2] was above 1000 nM. In addition, the binding signal in data set [4] turned out to be 25 % max bound.
In the case of SibB, the figures for the binding signal (fold weaker Kd than WT) in data set [5], in data set [1] and in data set [3] were 3, 4 and above 5, respectively. Also, the Kd in data set [6] and in data set [2] was above 1000 nM throughout.
Take RybB: the figures for the binding signal (fold weaker Kd than WT) in data set [1] and in data set [3] were 1 and 2, respectively. Moreover, the binding signal in data set [7] was below 20 % max bound; in data set [8], below 40 % max bound. For the same substance, in data set [2], the Kd was above 1000 nM.
Regarding gapA-3', the binding signal (fold weaker Kd than WT) in data set [5], in data set [1] and in data set [3] was 1 throughout. The binding signal in data set [7] and in data set [4] was below 20 % max bound each time. Further, the Kd in data set [2] is above 1000 nM.
As for SibB-5U, the binding signal in data set [8] was above 30 % max bound.
